Data from the nanobody polyreactivity screen of Harvey et al. (2022).

Assay: yeast display, Sf9 membrane polyspecificity reagent, FACS + sequencing; frameworks hold sequencing errors
Method in brief: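 Synthetic nanobody libraries on Saccharomyces cerevisiae BJ5465 were galactose-induced for 36–48 hours, stained 1 hour at 4 °C with 10% biotinylated, detergent-solubilized Sf9 membrane reagent and enriched on streptavidin microbeads. FACS then separated cells into low and high (top ~1%) gates by anti-HA (expression) and streptavidin (reagent binding) fluorescence. Genes were colony-PCR amplified, MiSeq 2 × 250 sequenced and CDR-length filtered. A clone's polyreactivity label is that of its gate of origin.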

Row | Sequence | polyreactivity (PSR sort gate)
1 | QVQLVESGGGLVQAGGSLRLSCAASGSIFSIYAMGWYRQAPWKERELVAAITWGGGSTYYADSVKGRFTISRDNAKNTVYVQMNSLKPEDTAVYYCAADSLTWYGTYYYWGQGTQVTVSS | high polyreactivity
2 | QVQLVESGGGLVQAGGSLRLSCAASGSIFSKYTMGWSRQAPGKEWELVAVISDSGASTYYADSVKGRFTISRDNAKNTVYLEMNSLKPEDTAVYYCAAVYRGALTLYYWGQGTQVTVSS | high polyreactivity
3 | QVQLVESGGGLVQAGGSLRLSCAASGSIFSKYVMGWYRQAPGKERELVAAISWSGTRTYYADSVKGRFTISRDNAKNTVYLQMNSLKPEDTAVDYCAARRLYAGHQYDYWGQGTQVTVSS | high polyreactivity
4 | QVQLVESGGGLVQAGGSLRLSCAASGSIFSLYAMGWYRQAPGKEWELVAAISRGGSTNYADSVKGRFTISRDNAKNTVYLQMNSLKPEDTAVYYCNAGFGVRRKHITFYTWYDYWGQGTQVTVSS | low polyreactivity
5 | QVQLVESGGGLVQAGGSLRLSCAASGSIFSNNAMGWYRQAPGKERELVAAITRSGGNTYYADSVKGRFTISRDNAKNTVYLQMNSLKPEDTAVYYCNAVHLRKMYYWGQGTQVTVSS | high polyreactivity
6 | QVQLVESGGGLVQAGGSLRLSCAASGSIFSPNAMGWYRQAPGKERELVAGISWSGDGTYYADSVKGRFTISRDNAKNTVYLQMNSLKPEDTAVYYCAARFGRYSHRYYYWGQGTQVTVSS | high polyreactivity
7 | QVQLVESGGGLVQAGGSLRLSCAASGSIFSPNDMGWYRQAPGKERELVAAITSAGSTYYADSVKGRFTISRDNAKNTVYLQMNSLKPEDTAVYYCAATYISVTDYAYFPLWYGYWGQGTQVTVSS | low polyreactivity
8 | QVQLVESGGGLVQAGGSLRLSCAASGSIFSPYAMGWYRQAPGKERELVAAISRSGRTHYADSVKGRFTISRDNAKNTVYLQMNSLKPEDTAVYYCAAGVVYGYYYWGQGTQVTVSS | high polyreactivity
9 | QVQLVESGGGLVQAGGSLRLSCAASGSIFSPYDMGWYRQAPGKERELVASITWRRGNTYYADSVKGRFTISRDNAKNTVYLQMNSLKPEDTAVYYCAATRGAQTPQTRKKRGFDYWGQGTQVTVSS | low polyreactivity
10 | QVQLVESGGGLVQAGGSLRLSCAASGSIFSPYTMGWYRQAPGKEREFVAAIRWTTGSTYYADSVKGRFTISRDNAKNTVYLQMNSLKPEDTAVYYCAADPSYRSRLFRSYEYDYWGQGTQVTVSS | high polyreactivity
11 | QVQLVESGGGLVQAGGSLRLSCAASGSIFSRNAMGWYRQAPGKEREFVARISWSSTSTNYADSVKGRFTISRDNAKNTVYLQMISLKPEVTAVDYCSADFRGDRRFDYWGQGTQVTVSS | low polyreactivity
12 | QVQLVESGGGLVQAGGSLRLSCAASGSIFSRNAMGWYRQAPGKEREFVARISWSSTSTNYADSVKGRFTISRDNSKNTVFLLINSLKPEDTAVYYCAADFRGDRRFDYWGQGTQVTVSS | low polyreactivity
13 | QVQLVESGGGLVQAGGSLRLSCAASGSIFSRYAMGWYRQSPGKERELVAAISQRAGSTYYADSVKGRFTISRDNAKNTVYLQMNSLKPEDTAVYYCAARRRGRKERGEDYWGQGTQVTVSS | high polyreactivity
14 | QVQLVESGGGLVQAGGSLRLSCAASGSIFSSNAMGWYRQAPGKERELVAAIDYSGGRTYYADSVKGRFTISRDNAKNTVYLQMNSLKPEDTAVYYCAKLIPVHSRYDYWGQGTQVTVSS | low polyreactivity
15 | QVQLVESGGGLVQAGGSLRLSCAASGSIFSSNAMGWYRQAPGKERELVAAITGSDGSTYYADSVKGRFTISRDNAKNTVYLQMNSLKPEDTAVYYCAAVGRYYYFDGFYYWGQGTQVTVSS | low polyreactivity
16 | QVQLVESGGGLVQAGGSLRLSCAASGSIFSSNTMGWYRQAPGKERELVAAITSGGTTYADSVKGRFTISRDNAKNTVYLQMNSLKPEDTAVYYCAARYYIHRGYDYDYWGQGTQVTVSS | high polyreactivity

Row | Sequence | polyreactivity (PSR sort gate)
17 | QVQLVESGGGLVQAGGSLRLSCAASGSIFSSYAMGWYRPAPGKERELVAAITRTGGRTYYADSVKGRFTISRDNAKNTVYLQMNSLKPEDTAVYYCAAKQVSRGVAAYDYWGQGTQVTVSS | high polyreactivity
18 | QVQLVESGGGLVQAGGSLRLSCAASGSIFSSYAMGWYRQAPGKERELVAAITTRGDSTRYADSVKGRFTISRDNAKNTVYLQMNSLKPEHTAVYYCNARYRDPYWDSGYWGQGTQVTVSS | high polyreactivity
19 | QVQLVESGGGLVQAGGSLRLSCAASGSIFSSYAMGWYRQAPGKERELVASISSGGSTNYADSVKGRFTISRDNAKNTVYLQMNSLKPEDTAVYYCNVDLYNWRGDSTGYDYWGQGTQVTVSS | low polyreactivity
20 | QVQLVESGGGLVQAGGSLRLSCAASGSIFSSYTMGWYRPAPGKERELLAAISSTGSTYYADSVKGRFTISRDNAKNTVYLQMNSLKPEDTAVYYCAARGWYWQQYKGHTRYDYWGQGTQVTVSS | high polyreactivity
21 | QVQLVESGGGLVQAGGSLRLSCAASGSIFSTNAMGWYRQAPGKEWELVAVITGIGGITYYADSVKGRFTISRDNAKNTDYLQMNSLKPEDTAVYYCAADPISEFYWGVKDRYDYWGQGTQVTVSS | low polyreactivity
22 | QVQLVESGGGLVQAGGSLRLSCAASGSIFSTNGMGWYRQAPGKERELVAAISTGGRTYYADSVKGRFTISRDNAKNTVYLQMNSLKPEDTAVYYCAKRFGYRSTEILDYWGQGTQVTVSS | low polyreactivity
23 | QVQLVESGGGLVQAGGSLRLSCAASGSIFSTYAMGWSRQAPGKERELVAAINRSGGSTTYADSVKGRCTISRDNAKNTVYLQMNSLKPEDTAVYYCAKAFRGHYWGQGTQVSVSS | high polyreactivity
24 | QVQLVESGGGLVQAGGSLRLSCAASGSIFSTYAMGWYRQAPGKERELVAAITTSGGRTYYADSVKGRFTISRDNAKNTVYVQMNSLKPEETAVYYCNAVRGGRYGLDYWGQGTQVTVSS | high polyreactivity
25 | QVQLVESGGGLVQAGGSLRLSCAASGSIFSTYAMGWYRQAPGKERELVASINYSGGSTYYADSVKGRFTISRDNAKNTVYLQMNSLKPEDTAVYYCNTGPFVGFDYWGQGTQVTVSS | low polyreactivity
26 | QVQLVESGGGLVQAGGSLRLSCAASGSIFSTYTMGWYRQAPGKERELVAGISKSGGSTYYADSVKGRFTISRDNAKNTVYLQMNSLKPEDTAVYYCAAPVPKTDKLLRMYYWGQGTQVTVSS | high polyreactivity
27 | QVQLVESGGGLVQAGGSLRLSCAASGSIFSTYVMGWYRPAPGKERELVAAIRWRATSTFYADSVKGRFTISRDNAKNTVYLQMNSLKPEDTAVYYCNRYHRTSWRAKYDYWGQGTQVTVSS | high polyreactivity
28 | QVQLVESGGGLVQAGGSLRLSCAASGSIFSTYVMGWYRQAPGKERELVAAITVSVGSTYYADSVKGRFTISRDNAKNTVYLQMNSLKPEDTAVYYCAAYGGTGYPFDAYYHDYDYWGQGTQVSVSS | low polyreactivity
29 | QVQLVESGGGLVQAGGSLRLSCAASGSIFSVNAMGWYRQAPGKERELVASINFRGGRTYYADSVKGRFTISRDNAKNTVYLQMNSLKPEDTAVYYCAAVISQTDTGYGPSFRVYYWGQGTQVTVSS | high polyreactivity
30 | QVQLVESGGGLVQAGGSLRLSCAASGSIFSVYVMGWYRQAPGKERELVAAISWSDSDTYYADSVKGRFTISRDNAKNTVYLQMNSLKPEDTAVYYCAAETFDYADYIANGSGEYDYWGQGTQVTVSS | high polyreactivity
31 | QVQLVESGGGLVQAGGSLRLSCAASGSIFSWYAMGWYRQAPGKERELVAAISGITGSTYYADSVKGRFTISRDNAKNTVYLQMNSLKPEDTAVYYCRALAGYASGMDYWGQGTQVTVSS | high polyreactivity
